Laboratory results: patent US20240109955A1 (published 2024)

Target: SARS-CoV-2 spike protein, original Wuhan strain (WT) (SARS-CoV-2, UniProt P0DTC2 14-1273)
Test: cell-based or functional assay

B1: A19-61.1 (antibody, V domains shown)
VH: QVQLVESGGGVVQPGRSLRLSCAASGFTFSSYAFHWVRQAPGKGLEWVAVISYDGSNQYYADSVKGRFTISRDNSKNTLYLQMNSLRADDTAVYYCARDLAIAVAGTWHYYNGMDVWGQGTTVTVSS
VL: DIQMTQSPSSVSASVGDRVIITCRASQGISSWLAWYQQKPGKAPKVLIYDASSLQSGVPSRFSGSGYGTDFTLTISSLQPEDSATYYCQQAKSFPITFGQGTRLEIK
IC50, pseudovirus neutralization: 172 pM
